We go through 1 protein from paper PMC7617963 (Current biology : CB, 2024).

This series deals with the molecule itself. Kind of series: cross-linking; BS3 cross-linker mixed 1:1 (w/w) with protein at 1 mg/ml, 30 minutes at room temperature, quenched with 200 mM ammonium bicarbonate, resolved by SDS-PAGE.

B1: CENP-E_(2452-2598) (domain or fragment, human, UniProt Q02224-1 2452-2598, looked up)
chain: PYKEEIEDLKMKLVKIDLEKMKNAKEFEKEISATKATVEYQKEVIRLLRENLRRSQQAQDTSVISEHTDPQPSNKPLTCGGGSGIVQNTKALILKSEHIRLEKEISKLKQQNEQLIKQKNELLSNNQHLSNEVKTWKERTLKREAHK
notes: CENP-E (centromere-associated protein E), residues 2452-2598; cell constructs were generated from CENP-E transcript variant 1 (NM_001813.2); cloned into pET3aTr for expression; The purification says that the His tag was cleaved with 3C protease, yet the crystallisation and cross-linking methods call the protein His6-CENP-E_(2452-2598); also called His6-CENP-E_(2452-2598); minimal corona-targeting …
Consider B1, for which the “stoichiometry N” value came out at 2.
